Publication doi:10.1101/2023.03.13.532366

Target: biotinylated mIL-12 (mIL-12a-AviTag-His6 and untagged mIL-12b) (mouse) (UniProt P43431)
Test: BLI

biotinylated mIL-12 (mIL-12a-AviTag-His6 and untagged mIL-12b) (mouse), sequence (P43431 23-215, chain 1 of 2): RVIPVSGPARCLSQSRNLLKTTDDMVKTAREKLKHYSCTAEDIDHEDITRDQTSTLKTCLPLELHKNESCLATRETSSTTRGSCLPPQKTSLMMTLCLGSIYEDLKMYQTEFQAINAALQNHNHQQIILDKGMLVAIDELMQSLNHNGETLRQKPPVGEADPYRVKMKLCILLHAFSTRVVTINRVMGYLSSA
biotinylated mIL-12 (mIL-12a-AviTag-His6 and untagged mIL-12b) (mouse), sequence (P43432 23-335, chain 2 of 2, further chain): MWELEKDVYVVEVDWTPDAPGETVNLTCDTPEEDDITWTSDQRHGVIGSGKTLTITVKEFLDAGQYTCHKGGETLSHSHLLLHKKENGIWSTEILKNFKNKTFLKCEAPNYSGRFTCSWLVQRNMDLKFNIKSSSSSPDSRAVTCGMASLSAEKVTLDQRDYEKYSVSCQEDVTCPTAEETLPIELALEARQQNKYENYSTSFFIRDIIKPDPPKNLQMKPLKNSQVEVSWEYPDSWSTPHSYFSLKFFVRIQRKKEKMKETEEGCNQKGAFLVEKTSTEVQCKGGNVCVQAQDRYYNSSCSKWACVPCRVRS
mIL-12Rβ1_(D1-D2) (from mIL-12Rβ1_(D1-D2)-CASP3-AviTag-His6), analyte in BLI (domain or fragment), sequence (Q60837 20-738): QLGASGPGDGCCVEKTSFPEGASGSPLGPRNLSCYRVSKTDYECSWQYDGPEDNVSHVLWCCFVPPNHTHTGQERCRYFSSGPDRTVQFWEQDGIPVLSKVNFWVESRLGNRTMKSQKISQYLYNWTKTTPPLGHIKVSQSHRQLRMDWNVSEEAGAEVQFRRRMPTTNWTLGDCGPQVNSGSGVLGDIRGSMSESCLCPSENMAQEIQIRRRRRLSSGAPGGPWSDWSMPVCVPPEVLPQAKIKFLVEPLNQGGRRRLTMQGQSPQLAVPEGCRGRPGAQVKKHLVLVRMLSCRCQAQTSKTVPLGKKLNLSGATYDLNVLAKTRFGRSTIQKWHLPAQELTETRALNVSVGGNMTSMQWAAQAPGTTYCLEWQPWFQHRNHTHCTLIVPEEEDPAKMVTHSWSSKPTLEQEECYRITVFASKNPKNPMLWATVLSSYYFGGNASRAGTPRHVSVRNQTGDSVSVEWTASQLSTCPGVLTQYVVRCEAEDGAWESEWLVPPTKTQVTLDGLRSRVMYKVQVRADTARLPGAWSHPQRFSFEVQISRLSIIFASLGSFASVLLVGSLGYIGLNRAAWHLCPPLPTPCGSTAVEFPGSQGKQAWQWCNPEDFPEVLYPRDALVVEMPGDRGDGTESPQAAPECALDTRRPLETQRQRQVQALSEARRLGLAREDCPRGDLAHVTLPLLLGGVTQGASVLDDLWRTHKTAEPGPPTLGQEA

fold higher affinity than the human counterparts (hIL-12 for hIL-12Rβ1): 10 fold
Substance: mIL-12Rβ1_(D1-D2) (from mIL-12Rβ1_(D1-D2)-CASP3-AviTag-His6), analyte in BLI (domain or fragment)
